Measurements taken from the supplement of paper PMC12042874.
± gives the uncertainty stated by the source.

Experiment: amyloid nucleation score (Sup35N fusion, yeast selection) (log enrichment); library NNK1; higher = more nucleation; inactive = no reads after selection
Procedure, shortened: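 Three technical output replicates were used for random libraries. Psi-negative yeast expressing peptides of 20 random codons fused to Sup35N were induced with 100 μM copper sulfate for 24 hours and grown 7 days at 30°C on medium lacking adenine and uracil, and input and output plasmid inserts were Illumina-sequenced, excluding sequences with under 100 input reads. The nucleation score is the DiMSum log enrichment of output over input reads, centred on the mode score of non-aggregating sequences.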

| Substance | amyloid nucleation score |
| --- | --- |
| IIQCNVTYAS | 3.63 ± 0.12 |
| IIRGRNVNSVRSNYYMGRFY | 2.72 ± 0.095 |
| IISVTVFFKCARLEILNR | -0.64 ± 0.57 |
| IKALMIC | inactive |
| IKGPLLFIFSESVLAFDETS | 3.6 ± 0.073 |
| IKGQGVKVSVVLTAGTCRLW | 1.17 ± 0.19 |
| IKIIAFFWLCSYHGWISWKS | -1.5 ± 1.1 |
| IKIRAFDTSSCSQFRVRPRV | 4.63 ± 0.095 |
| IKISYEIQAMAVLGM | inactive |
| IKLGVFRIKSSFN | 0.708 ± 0.34 |
| IKLHSEGRIYHINFACRSVC | 0.199 ± 0.24 |
| IKLTPLMLRTTELV | -1.32 ± 0.5 |
| IKNKGRYVFETPGL | 0.13 ± 0.87 |
| IKPANYA | -0.679 ± 0.53 |
| IKSGPPGRRQLFN | -0.741 ± 0.81 |
| ILFFRRCISVGLL | 3.33 ± 0.12 |
| ILGFSRWNLNCISSRGRKIR | -0.297 ± 0.39 |
| ILGLSRGQ | 0.015 ± 0.37 |
| ILGMFSTICDGWADVMH | 0.525 ± 0.36 |
| ILGWHGIRFVFRTALFRR | -0.286 ± 0.41 |
| ILHQAILRCVSRYGLS | -0.012 ± 0.76 |
| ILIFVNSVYRNVSSR | 5.27 ± 0.056 |
| ILILNGLGGHVFARWYVACT | 0.002 ± 0.75 |
| ILILRGNCR | -0.165 ± 0.73 |
| ILISVSLNMWY | 2.43 ± 0.13 |
| ILITSLWFSGVADVMANRVW | 0.314 ± 0.34 |

| Substance | amyloid nucleation score |
| --- | --- |
| ILMMPLIESCMEVLGHPS | 0.873 ± 0.51 |
| ILMYMWDKLNLYNIWFLRQV | 0.263 ± 0.5 |
| ILPKWAK | 0.7 ± 0.97 |
| ILPRNFVSTNVANRFIEGSS | 0.932 ± 0.66 |
| ILQSFSTVEHFEDLL | 0.58 ± 1.2 |
| ILRNGRTYGAEVLQQLWNVL | -0.418 ± 0.73 |
| ILSAMVRE | -0.081 ± 0.23 |
| ILSICLSLVFRPSVMIEYLR | 0.191 ± 0.26 |
| ILSIFLYWAILLRSCQYLYW | -0.949 ± 0.4 |
| ILSKVCGFSVARIWCSCISI | 6.65 ± 0.088 |
| ILTMVEILKTIRGSA | -0.316 ± 0.47 |
| ILVPYLIAFFMEYRSRLCRF | 0.254 ± 0.27 |
| ILYCLNLVIHLCQRYSLILR | 1.97 ± 0.56 |
| IMARCIVFKPG | 0.136 ± 0.75 |
| IMCPMWWLVLYNSSVQRYAE | 6.11 ± 0.07 |
| IMFLRLFKGLCMKYSVRRDC | -0.512 ± 0.4 |
| IMKYPETGLAGRLLTGYTLS | 0.633 ± 0.61 |
| IMLLLREKLASIRMMQECQL | inactive |
| IMLTGLRLHVVDGEKLPMTS | 1.01 ± 0.71 |
| IMLVYMKTLGTM | 3.7 ± 0.071 |
| IMSKRTWWLRPRGPTACFQW | 0.208 ± 0.44 |
| IMSSL | -0.507 ± 0.73 |
| IMTESCCG | 0.743 ± 0.54 |
| IMTSWFLPQSCQNDWDKLY | -0.012 ± 0.2 |
| IMWSKENWDGG | -0.649 ± 0.44 |
| IMYCLFGHLFLLRIGGFIMG | 0.101 ± 0.68 |

| Substance | amyloid nucleation score |
| --- | --- |
| INFRHA | 2.57 ± 0.33 |
| INGMEYLEQKIEVL | 0.091 ± 0.42 |
| INGRTGILRRVGN | -1.28 ± 0.75 |
| INHVMHGMEVRRGVNGRWMY | 0.312 ± 1.1 |
| ININRNK | inactive |
| INLGFLWTCARDAVFLYDLS | 2.31 ± 0.17 |
| INLGVMWGVPTELLVCNF | inactive |
| INLYVNISRFIPCV | 0.027 ± 0.53 |
| INMRKLPSRVSSFKVKCGHR | -0.42 ± 1.7 |
| INQKSMMSSSDWRRWYFSGR | inactive |
| INYFRWGDIFVYSNSKSSRL | 0.511 ± 0.17 |
| IPARTESDTRYMSMCGSNNQ | -0.317 ± 0.55 |
| IPCDFDRISSSVFAKCNYSI | -0.455 ± 0.24 |
| IPDVEGQGG | 0.469 ± 0.72 |
| IPRYCRRNMADSAIV | 0.923 ± 0.62 |
| IPSGTVF | 0.34 ± 0.9 |
| IQSPC | -0.171 ± 0.23 |
| IQSSPIR | 0.464 ± 0.88 |
| IRDTLNVCNKEEQKSRGS | -0.358 ± 0.37 |
| IRGFSSSISLWWVDGTVANV | -0.422 ± 0.49 |
| IRSAN | 0.918 ± 1.1 |
| IRSQKCCFLHRWFLACFRII | -0.624 ± 1.1 |
| IRVSFCWSNLHNNYNSGRAT | 5.02 ± 0.085 |
| IRYCFCKIK | 0.312 ± 1.1 |
| IRYLWHVLMVRFEESRWSLY | -0.061 ± 0.36 |
| IRYYVVSSVVDSNS | -0.142 ± 0.31 |

| Substance | amyloid nucleation score |
| --- | --- |
| ISCCVKLRFGLCKSWNFMNQ | -1.19 ± 1.4 |
| ISCSVKILRCLTCMLFSSVV | -0.8 ± 1.3 |
| ISCTTFACTTRLKIRAAS | 0.434 ± 0.56 |
| ISECDICERR | -0.236 ± 0.68 |
| ISEGVIRDMSNRVRGSMQEI | -0.175 ± 1.2 |
| ISGFMLQVLTRRYSWMSA | -0.498 ± 0.88 |
| ISGYQS | 0.088 ± 0.64 |
| ISIIVVKFDMLLSNHHNSDA | 0.486 ± 0.58 |
| ISKNLNRMHILVLYMVGMRF | 0.259 ± 0.88 |
| ISLPLTPN | -0.492 ± 0.36 |
| ISLRYFPNYISFHKLGFRSA | 0.523 ± 0.39 |
| ISNCYQVKALFVSHFLIRDR | 4.29 ± 0.047 |
| ISPYPPRHLLQWVCKGE | 0.034 ± 0.68 |
| ISQKNDAMNYYIGMSQM | 1.52 ± 0.34 |
| ISRADVWVWFLLSMSRREYF | 0.268 ± 0.55 |
| ITKNRPARNRLLRTGMYFLL | 0.004 ± 0.29 |
| ITKSRLWHDWLTRRVMTTDC | -0.241 ± 1.4 |
| ITVGEYVNHCSG | 0.224 ± 1.4 |
| IVAVDFGLFRMRTIPRAAVS | -0.144 ± 1.6 |
| IVDVVLSMGLLYLTSVNY | -0.369 ± 0.74 |
| IVLMLCV | -0.097 ± 0.36 |
| IVMFVGFCGENKLAWDSRRK | 5.03 ± 0.05 |
| IVNAGICPGNSRYSGNGATR | -0.162 ± 0.53 |
| IVNNIVCSAGVDPFSQHCMD | 1.84 ± 0.67 |
| IVRVLCSLLIQFKVNAY | inactive |
| IVVFFAPDFCGRQLYDKSKS | 4.85 ± 0.11 |

| Substance | amyloid nucleation score |
| --- | --- |
| IVWVDLNRIGSCAGLGINYY | 0.18 ± 0.41 |
| IWCNMSFNIRV | 4.4 ± 0.088 |
| IWIMWGYRSLDTMLHS | 0.047 ± 0.77 |
| IWLRS | 0.779 ± 0.62 |
| IYCVGDFVP | -0.026 ± 0.35 |
| IYEILKVTS | inactive |
| IYFHLGGCI | -0.376 ± 0.42 |
| IYFQVSRLMSVRRAMKSPKP | -0.666 ± 1.4 |
| IYLCCADFARIVMVTSTRWL | 0.052 ± 0.5 |
| IYLLLCLENRVDMLE | inactive |
| IYPILVMSASQA | 0.549 ± 0.69 |
| IYSARFIGVRPNYYCMDARP | -0.85 ± 0.88 |
| IYTSLCQRGGMVMHESKYCC | 0.624 ± 0.65 |
| IYVYWSDISV | 0.907 ± 0.42 |
| KAFWSLCYVERGRWYGAVNA | 0.128 ± 1 |
| KAHRWDGRIFN | -1.27 ± 0.55 |
| KAKTFI | 0.268 ± 1.2 |
| KALVADC | 0.001 ± 0.34 |
| KAVRMSNFD | 0.223 ± 0.71 |
| KCMFVESKSRDNCVMSNES | -0.055 ± 0.9 |
| KCRGCSMMRAS | 1.84 ± 0.5 |
| KCSSLLSHMWLCITLVTVLA | 0.357 ± 0.57 |
| KCTCSVKCSCIFCFIICCVC | -1.2 ± 1.7 |
| KDCCMLDIYVEAWSGSFGRK | 1.44 ± 0.2 |
| KDSGYMCWMGDLCVWSP | 5.97 ± 0.097 |
| KEFMRWHQTPRFVKKTHVRG | -0.834 ± 1.4 |

| Substance | amyloid nucleation score |
| --- | --- |
| KELFLMPDGEPFMG | 0.079 ± 0.61 |
| KFGDPSRAAILNMSGSISDK | -0.189 ± 0.46 |
| KFIFVGNGECMRPGCSDDSL | 1.99 ± 0.38 |
| KFIVVS | 0.507 ± 0.62 |
| KFSFCKS | 0.207 ± 0.31 |
| KFSNWTDV | -0.164 ± 1.1 |
| KGLIKDNCNTSGGEFNCGY | -0.278 ± 0.21 |
| KGQFF | 0.835 ± 0.75 |
| KGRSCLGRLRLVGQMRPKYN | 0.366 ± 0.76 |
| KHSNLYIFPGVYFFQITSLY | 3.96 ± 0.088 |
| KHYIKRASDGHAFSYVHLSL | 0.068 ± 0.38 |
| KIGLNCFE | inactive |
| KILTVHPSHNDPC | -1.32 ± 1.9 |
| KITWDLF | 0.759 ± 0.52 |
| KKALTALM | 0.822 ± 0.98 |
| KKKYTEHISFTALHKLFTRR | 0.189 ± 0.92 |
| KKRICFMSLSQRWRSRTTCW | 0.164 ± 0.3 |
| KKVGRHFDLCALDRTQSGCW | -0.162 ± 0.39 |
| KLAIYFILAACSRNVVED | 0.768 ± 0.36 |
| KLEMARAIKFFGYDTLETAF | 1.1 ± 0.71 |
| KLLPSKLCNASRFSFFYKES | -0.82 ± 0.81 |
| KLLSGRLDTFSGGGDYMCPV | inactive |
| KLSGCMISKILFSPCWRD | 5.896 ± 0.058 |
| KLSVGLRYCRPATRTSAHVM | 0.271 ± 0.35 |
| KLVIETSPCVRSHVSLVQKR | -0.277 ± 0.26 |
| KLYPFL | 0.565 ± 0.32 |

| Substance | amyloid nucleation score |
| --- | --- |
| KMATRINGWCDGASATTV | -0.154 ± 0.74 |
| KMFTGNSEFFCFLTTVKLDR | -0.068 ± 0.61 |
| KNFHELTVDYVCVLYREQLF | 0.115 ± 0.26 |
| KNKPL | 2.72 ± 0.15 |
| KNLGTRGHSMY | -0.164 ± 0.31 |
| KNLKW | 0.476 ± 0.97 |
| KNLVWMDRVQFRLSWAHVRL | -1.38 ± 2.4 |
| KNNIDIAFAV | -0.065 ± 0.98 |
| KNSIYSCVTRTFSPMVLRYC | 0.557 ± 0.54 |
| KNYLLSLGVCNFQSYPHKCW | 4.22 ± 0.16 |
| KPDSMFDFER | -0.675 ± 1.3 |
| KPLEDFVDYKMMLMIHEEVC | 0.763 ± 0.97 |
| KPTLGVILTTTTFTRSCLYY | -0.252 ± 0.73 |
| KRDLPTQTTDNLACSWAPTQ | -0.884 ± 2.4 |
| KRHVSGKVQMGWGVRRRPV | 0.178 ± 0.72 |
| KRLDVKMVLPEVRFRLDVSL | 0.732 ± 0.27 |
| KRNRYTKGTHHTSFMNFYFC | 8.37 ± 0.066 |
| KRPHGDH | 0.416 ± 0.73 |
| KSCDSESFYGDTRSFHTDSV | -1.5 ± 1.3 |
| KSDNVVTRLRLLSAEVQW | -0.295 ± 0.98 |
